Reference: paper PMC11921551

Tests used:
[1] = molecular target: Recombinant human LDL receptor (LDLR) (human) (UniProt P01130); assay: AFM force spectroscopy; LDLR on the AFM probe through PEG (traditional immersion method), LDL immobilised on mica; PBS pH 7.4, 37 °C; n = 200 interactions
[2] = molecular target: Recombinant human LDL receptor (LDLR) (human) (UniProt P01130); assay: AFM force spectroscopy; receptor on the AFM probe tip through PEG (micro-droplet method), lipoprotein immobilised on mica; PBS pH 7.4, 37 °C, loading force 0.5 nN for 2 s, loading speed 200 nm/s; n = 200 interactions
[3] = molecular target: Recombinant human CD36 (human) (UniProt P16671); assay: as above

Recombinant human LDL receptor (LDLR) (human), sequence (P01130 22-788): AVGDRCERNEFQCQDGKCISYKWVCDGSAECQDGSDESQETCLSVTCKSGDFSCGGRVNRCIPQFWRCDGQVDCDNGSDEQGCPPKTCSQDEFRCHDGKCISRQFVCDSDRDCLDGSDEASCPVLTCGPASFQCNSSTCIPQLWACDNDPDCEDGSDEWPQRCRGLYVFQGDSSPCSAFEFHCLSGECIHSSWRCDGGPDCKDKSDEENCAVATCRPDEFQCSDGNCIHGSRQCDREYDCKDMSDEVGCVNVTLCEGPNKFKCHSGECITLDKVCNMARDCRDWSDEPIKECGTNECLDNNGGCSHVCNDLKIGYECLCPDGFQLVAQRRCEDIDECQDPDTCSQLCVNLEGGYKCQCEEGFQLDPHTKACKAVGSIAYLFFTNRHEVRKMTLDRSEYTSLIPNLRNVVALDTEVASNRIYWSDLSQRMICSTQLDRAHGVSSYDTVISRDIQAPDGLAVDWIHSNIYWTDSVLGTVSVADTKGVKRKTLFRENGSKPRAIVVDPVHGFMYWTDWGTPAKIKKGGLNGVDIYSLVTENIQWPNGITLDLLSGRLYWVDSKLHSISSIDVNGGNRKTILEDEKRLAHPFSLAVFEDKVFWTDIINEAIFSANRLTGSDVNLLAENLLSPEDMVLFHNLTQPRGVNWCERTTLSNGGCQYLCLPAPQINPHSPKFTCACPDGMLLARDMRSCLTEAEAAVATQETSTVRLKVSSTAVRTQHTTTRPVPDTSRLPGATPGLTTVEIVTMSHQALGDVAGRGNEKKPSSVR

| average specific interaction force [1] [pN] | average specific interaction force [2] [pN] | average interaction force [3] [pN] | Substance |
| --- | --- | --- | --- |
| 322 | 231 |  | Human low-density lipoprotein (LDL), P04114 28-4563 |
|  |  | 229 | Human oxidized low-density lipoprotein (oxLDL) (from UniProt P04114 28-4563) (complex) |
